Results reported in article doi:10.1101/2021.07.05.451109 (bioRxiv, 2021).

Legend:
[1] = target: NLuc/CXCR4 (genome-edited, HeLa cells) (human (endogenous in HeLa), UniProt P61073 1-352); assay: FRET or BRET
[2] = target: NLuc/CXCR4 (genome-edited, HEK293 cells) (human (endogenous in HEK293), UniProt P61073 1-352); assay: FRET or BRET
Chain of NLuc/CXCR4 (genome-edited, HEK293 cells) (P61073 whole entry): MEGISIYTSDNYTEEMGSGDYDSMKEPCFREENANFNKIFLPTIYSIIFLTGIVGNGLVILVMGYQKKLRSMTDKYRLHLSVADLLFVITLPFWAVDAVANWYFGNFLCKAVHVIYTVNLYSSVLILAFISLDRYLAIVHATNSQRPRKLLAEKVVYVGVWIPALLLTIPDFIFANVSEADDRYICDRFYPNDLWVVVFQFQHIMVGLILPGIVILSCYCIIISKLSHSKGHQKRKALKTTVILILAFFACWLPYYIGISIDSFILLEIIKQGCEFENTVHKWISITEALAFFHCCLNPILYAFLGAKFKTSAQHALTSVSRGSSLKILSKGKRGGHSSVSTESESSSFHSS

Chain of NLuc/CXCR4 (genome-edited, HeLa cells) (P61073 whole entry): as above

B1: 24Leu-CXCL17 (ligand)
chain: LNPGVARGHRDRGQASRRWLQEGGQECECKDWFLRAPRRKFMTVSGLPKKQCPCDHFKGNVKKTRHQRHHRKPNKHSRACQQFLKQCQLRSFALPL
pKi [1]: 6.15 ± 0.27
pKi [2]: 6.14 ± 0.3
